This passage reports EC50 results from patent CN106046162A (DONG ZHUMING BIOTECH CO LTD, dated 2016).

In assay [1] the target is T1, 人PD-1-Fc重组蛋白(RD) (human, UniProt Q15116 21-167, limits assumed).
T1 construct: Bought recombinant protein (RD); also called hPD-1-Fc; hPD-1; not shown: Fc part of the bought fusion protein
Kind of assay: ELISA, 3-fold dilutions of the antibody in 12 steps, goat anti-mouse IgG-Fc-HRP; the text prints the coat as hPD-L1-Fc but reports affinity for PD-1. (An ELISA detects its analyte on a solid surface through an enzyme-linked reagent.)

In assay [2] the target is T1, 人PD-1-Fc重组蛋白(RD). Kind of assay: Biacore blocking assay, hPD-1-Fc on the chip, 2-fold dilutions of the antibody in 7 steps; blocks PD-1 binding to B7-H1.

T1 sequence (Q15116 21-167 limits assumed): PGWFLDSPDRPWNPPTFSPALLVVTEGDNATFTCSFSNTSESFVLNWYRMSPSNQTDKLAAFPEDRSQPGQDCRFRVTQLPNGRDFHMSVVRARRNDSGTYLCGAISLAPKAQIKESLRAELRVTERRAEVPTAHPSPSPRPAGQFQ

B1: 抗人PD-1单克隆抗体2-189-H-1 (antibody, V domains shown)
VH: QVQLKESGPGLVAPSQSLSITCTVSGFSLTTYGVSWVRQPPGKGLEWLGVIWGDGSTDYHSVLISRLSITKDISKSQVFLKLNSLQSDDTATYYCAQQGSRGDYWGQGTTLTVSS
VL: DVLLTQTPLSLPVSLGDQASISCRSSQTIVHSNGITYLEWYLQKPGQSPKALISKVSNRLSGVPDRFSGSGSGTDFTLKISRVEAEDLGVYYCFQGSHIPYTFGGGTKLEIK
notes: Mouse hybridoma antibody (CCTCC C2015160), purified on Protein A; also called 本抗体; hPD-1抗体
As usually defined, the EC50 is the concentration needed to bring the measured effect to its halfway point. With B1, the results for the EC50 with 人PD-1-Fc重组蛋白(RD) [1] and in the assay with 人PD-1-Fc重组蛋白(RD) [2] were 1.07 nM and 64.4 nM, respectively.
